One assay addresses T1, BSA (UniProt P02769 25-607).
T1 construct: Control protein in the input-phage ELISA; also called bovine serum albumin
The assay can be described thus: phage ELISA, absorbance at 450 nm. Background: An ELISA detects its analyte on a solid surface through an enzyme-linked reagent.

Assay [1] deals with T2, VEGF121 (human vascular endothelial growth factor) (human, UniProt P15692-9 27-147).
T2 construct: Immobilised on a CM5 chip by EDC/NHS for SPR and coated on plates for phage ELISA; also called VEGF-Trx cut with thrombin
T2 sequence (looked up): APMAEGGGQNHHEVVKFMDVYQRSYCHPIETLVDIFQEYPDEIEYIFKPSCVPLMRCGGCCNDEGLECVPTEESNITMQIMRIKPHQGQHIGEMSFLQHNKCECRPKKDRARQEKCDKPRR
Kind of assay: phage ELISA, absorbance at 450 nm.

In another assay the target is T3, Human serum albumin (human, UniProt P02768 25-609).
T3 construct: Bought protein; also called HSA; HAS
T3 sequence (P02768 25-609 limits assumed): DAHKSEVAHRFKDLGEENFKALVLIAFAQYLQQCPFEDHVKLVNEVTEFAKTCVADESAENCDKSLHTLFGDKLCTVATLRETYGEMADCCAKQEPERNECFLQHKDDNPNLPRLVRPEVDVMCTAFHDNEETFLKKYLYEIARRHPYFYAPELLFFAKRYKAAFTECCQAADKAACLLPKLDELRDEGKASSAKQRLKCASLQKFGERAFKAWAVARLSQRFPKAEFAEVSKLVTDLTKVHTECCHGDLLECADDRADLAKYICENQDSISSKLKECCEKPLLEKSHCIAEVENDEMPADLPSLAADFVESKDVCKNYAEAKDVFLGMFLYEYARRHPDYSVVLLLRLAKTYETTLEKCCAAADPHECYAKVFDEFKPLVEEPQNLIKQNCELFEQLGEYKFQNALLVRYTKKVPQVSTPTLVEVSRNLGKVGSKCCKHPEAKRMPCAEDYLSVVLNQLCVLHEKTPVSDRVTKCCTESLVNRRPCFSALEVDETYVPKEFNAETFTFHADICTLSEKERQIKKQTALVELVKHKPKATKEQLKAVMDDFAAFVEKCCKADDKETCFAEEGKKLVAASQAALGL
The assay can be described thus: phage ELISA, absorbance at 450 nm.

Another assay concerns the target T4, Streptavidin (UniProt P22629 37-163, limits assumed).
T4 construct: Control protein in the input-phage ELISA; also called straptavidin
The assay can be described thus: phage ELISA, absorbance at 450 nm.

In assay [2] the target is T5, STAT3 protein (UniProt P40763 1-770, limits assumed). The assay can be described thus: phage ELISA of single clones on STAT3 against streptavidin. The protocol: STAT3 (10 μg/ml), BSA (10 μg/ml) and streptavidin (10 μg/ml) each was added to 30 wells (50 μl per well) in a 96-well ELISA plate and then kept to stand at 4° C. overnight. Next day, all wells were washed with 0.1% PBST three times, and blocked at room temperature for 2 hrs using 2% skim milk diluted with PBS. Then, the solution was removed and the plate was washed with 0.1% PBST three times. Phage peptide solution (100 μl) amplified from each clone was aliquoted to STAT3-bound wells and streptavidin protein-bound wells and kept to stand at 27° C. for 1.5 hrs. After washing with 0.1% PBST 10 times, HRP-conjugated anti-M13 antibodies (1:1,000 dilution; GE Healthcare) were added to each well and incubated at 27° C. for 1 hr. After washing with 0.1% PBST 5 times, 100 μl TMB was divided into each well to induce colorimetric reaction, followed by stopping the reaction adding 100 μl of 1 M HCl. The absorbance was measured at 450 nm to select phages which had the absorbance above 20-fold higher than BSA. XL1 cells were infected with these phages and spread in plate to produce 100-200 of plaques. […]
T5 sequence (P40763 whole entry): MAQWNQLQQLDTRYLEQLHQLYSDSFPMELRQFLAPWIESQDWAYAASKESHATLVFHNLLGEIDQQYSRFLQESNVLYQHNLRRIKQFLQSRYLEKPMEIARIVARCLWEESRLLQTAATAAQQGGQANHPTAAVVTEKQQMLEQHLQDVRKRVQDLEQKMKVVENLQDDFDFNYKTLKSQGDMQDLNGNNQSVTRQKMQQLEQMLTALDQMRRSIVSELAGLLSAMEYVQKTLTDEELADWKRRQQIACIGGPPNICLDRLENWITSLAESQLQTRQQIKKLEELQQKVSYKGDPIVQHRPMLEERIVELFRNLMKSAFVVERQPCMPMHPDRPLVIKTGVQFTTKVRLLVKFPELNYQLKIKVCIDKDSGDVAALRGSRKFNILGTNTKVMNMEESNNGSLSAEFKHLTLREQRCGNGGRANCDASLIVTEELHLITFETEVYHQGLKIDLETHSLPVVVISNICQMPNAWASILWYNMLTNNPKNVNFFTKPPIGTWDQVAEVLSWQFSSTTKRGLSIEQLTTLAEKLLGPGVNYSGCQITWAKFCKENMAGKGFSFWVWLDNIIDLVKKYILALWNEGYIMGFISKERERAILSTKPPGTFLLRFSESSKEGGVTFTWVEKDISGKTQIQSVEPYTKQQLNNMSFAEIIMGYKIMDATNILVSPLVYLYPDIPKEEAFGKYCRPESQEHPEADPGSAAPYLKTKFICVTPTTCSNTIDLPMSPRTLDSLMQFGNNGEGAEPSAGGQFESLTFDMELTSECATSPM
The phages recovered from the 4th biopanning step having the highest O/I ratio in each library were isolated as plaques. […] The DNA 10 sequencing was performed for 6 clones showing the absorbance value above 2-fold higher than streptavidin. […]

Assay [3] deals with T5, STAT3 protein. The assay can be described thus: SPR (Biacore X), STAT3 (4000 RU) on CM5 chip, peptide at 2, 5 and 7.5 µM. The protocol:
The peptide sequences were identified by DNA sequencing. Two peptides were synthesized (BPB1: QAYYIP […] LWGPEF; BPB2: HGFQWP […] AYQFLK).
The affinity of the bipodal-peptide binder (BPB1: QAYYIP […] LWGPEF) was measured using SPR (Biacore X). The STAT3 protein (4000 RU) was fixed onto the CM5 chip. The concentrations of 2 μM, 5 μM and 7.5 μM the bipodal-peptide binder were used.

Some results are limits rather than exact numbers.

For orientation: Kd means the concentration at which binding is half-saturated. Higher therefore signals weaker binding.

T1 sequence (P02769 25-607 limits assumed): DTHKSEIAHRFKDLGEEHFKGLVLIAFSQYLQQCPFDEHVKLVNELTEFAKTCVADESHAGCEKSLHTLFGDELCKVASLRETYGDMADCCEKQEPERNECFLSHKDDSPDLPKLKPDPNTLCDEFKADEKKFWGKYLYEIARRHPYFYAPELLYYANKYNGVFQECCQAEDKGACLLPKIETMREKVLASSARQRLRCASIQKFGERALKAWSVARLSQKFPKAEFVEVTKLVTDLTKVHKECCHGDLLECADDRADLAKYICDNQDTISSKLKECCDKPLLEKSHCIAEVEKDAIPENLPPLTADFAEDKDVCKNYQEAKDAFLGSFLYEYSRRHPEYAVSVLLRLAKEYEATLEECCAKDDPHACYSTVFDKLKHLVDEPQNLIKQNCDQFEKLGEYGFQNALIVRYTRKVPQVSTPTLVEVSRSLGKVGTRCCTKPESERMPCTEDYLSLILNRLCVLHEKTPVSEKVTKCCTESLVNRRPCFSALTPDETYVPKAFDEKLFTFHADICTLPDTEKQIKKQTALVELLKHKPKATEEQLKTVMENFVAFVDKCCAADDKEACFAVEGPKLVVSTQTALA
T4 sequence (P22629 37-163 limits assumed): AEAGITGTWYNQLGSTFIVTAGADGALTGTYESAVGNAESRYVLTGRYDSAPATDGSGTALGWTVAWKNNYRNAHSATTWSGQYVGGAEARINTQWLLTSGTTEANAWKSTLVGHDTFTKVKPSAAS

B1: STAT3-specific bipodal-peptide binder Peptide 1 (peptide)
peptide: QAYYIPGSWTWENGKWTWKGLWGPEF
notes: also called BPB1; Peptidel
Turning to B1, the binding result (with BSA; in assay [1]; with Human serum albumin; with Streptavidin) was “no binding” each time. For the same molecule, the “fold absorbance over streptavidin” value in the assay with STAT3 protein [2] is over 2 fold. Besides, the dissociation constant Kd with STAT3 protein [3] is about 1700 nM.

(Values after patent publication US20120309934A1 (GWANGJU INSTITUTE OF SCIENCE AND TECHNOLOGY, published 2012).)
